The values that follow come from patent US20020151484A1 (HYBRIGENICS, published 2002).

Common to all, as to test: yeast two-hybrid, mating, His3/LacZ reporters
Test [1] has as its target T1, SID polypeptide of SEQ ID No 31, NS5B (100%), HCV strain H77 nt 8354-8665 (hepatitis C virus strain H77, UniProt P26664 2672-2773).
T1 construct: Intersection of yeast two-hybrid prey fragments; also called SID NS5B (100%)

Test [2] deals with T2, SID polypeptide of SEQ ID No 29, NS3 (100%), HCV strain H77 nt 4451-4790 (hepatitis C virus strain H77, UniProt P27958 1371-1482).
T2 construct: Intersection of yeast two-hybrid prey fragments; also called SID NS3 (100%)
T2 sequence: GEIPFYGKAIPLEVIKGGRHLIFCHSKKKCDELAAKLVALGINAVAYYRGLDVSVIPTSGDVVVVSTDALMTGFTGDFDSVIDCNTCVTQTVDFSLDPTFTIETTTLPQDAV

Test [3] concerns the target T3, Bait polypeptide of SEQ ID No 111, NS5B (100%), HCV strain H77 nt 8708-8978 (hepatitis C virus strain H77, UniProt P27958 2790-2878).
T3 construct: also called Bait NS5B (100%)

Test [4] has as its target T4, Bait polypeptide of SEQ ID No 112, NS5B (100%), HCV strain H77 nt 8996-9220 (hepatitis C virus strain H77, UniProt Q03463 2886-2958).
T4 construct: also called Bait NS5B (100%)

Test [5] has as its target T5, Bait polypeptide of SEQ ID No 84, NS3 (100%), HCV strain H77 nt 3767-4244 (hepatitis C virus strain H77, UniProt P27958 1143-1300).
T5 construct: also called Bait NS3 (100%)
T5 chain: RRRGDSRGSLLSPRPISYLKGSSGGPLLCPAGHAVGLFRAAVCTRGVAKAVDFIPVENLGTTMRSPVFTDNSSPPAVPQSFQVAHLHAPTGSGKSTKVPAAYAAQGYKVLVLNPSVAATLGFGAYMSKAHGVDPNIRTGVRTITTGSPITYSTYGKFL

Test [6] has as its target T6, SID polypeptide of SEQ ID No 8, NS4A (59%)/NS4B (40%), HCV strain H77 nt 5375-5542 (hepatitis C virus strain H77, UniProt P27958 1679-1732).
T6 construct: Intersection of yeast two-hybrid prey fragments; also called SID NS4A (59%)/NS4B (40%)
T6 sequence: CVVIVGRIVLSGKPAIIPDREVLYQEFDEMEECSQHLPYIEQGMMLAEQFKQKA

In test [7] the target is T7, SID polypeptide of SEQ ID No 33, NS3 (100%), HCV strain H77 nt 4715-4901 (hepatitis C virus strain H77, UniProt P27958 1459-1519).
T7 construct: Intersection of yeast two-hybrid prey fragments; also called SID NS3 (100%)
T7 sequence: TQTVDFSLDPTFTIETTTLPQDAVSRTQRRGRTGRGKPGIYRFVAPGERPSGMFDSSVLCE

Test [8] addresses T8, Bait polypeptide of SEQ ID No 109, NS5B (100%), HCV strain H77 nt 7976-8759 (hepatitis C virus strain H77, UniProt P26664 2546-2805).
T8 construct: also called Bait NS5B (100%)

For test [9], the target named is T9, Bait polypeptide of SEQ ID No 80, E1 (4%)/E2 (95%), HCV strain H77 nt 1478-1756 (hepatitis C virus strain H77, UniProt P27958 380-470).
T9 construct: also called Bait E1 (4%)/E2 (95%)

In test [10] the target is T10, SID polypeptide of SEQ ID No 30, NS4B (100%), HCV strain H77 nt 6029-6194 (hepatitis C virus strain H77, UniProt P26664 1897-1950).
T10 construct: Intersection of yeast two-hybrid prey fragments; also called SID NS4B (100%)
T10 sequence: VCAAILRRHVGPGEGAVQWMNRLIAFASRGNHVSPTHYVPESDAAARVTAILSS

In test [11] the target is T11, Bait polypeptide of SEQ ID No 79, E1 (100%), HCV strain H77 nt 995-1342 (hepatitis C virus strain H77, UniProt P27958 219-332).
T11 construct: also called Bait E1 (100%)
T11 chain: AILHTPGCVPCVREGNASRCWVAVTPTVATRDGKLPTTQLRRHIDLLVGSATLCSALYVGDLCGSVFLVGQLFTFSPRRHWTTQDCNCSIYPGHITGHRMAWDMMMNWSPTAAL

Test [12] concerns the target T12, Bait polypeptide of SEQ ID No 107, NS5B (100%), HCV strain H77 nt 7838-8743 (hepatitis C virus strain H77, UniProt P26664 2500-2799).
T12 construct: also called Bait NS5B (100%)

B1: Bait polypeptide of SEQ ID No 106, NS5B (100%), HCV strain H77 nt 7613-8027 (other)
chain: not shown
notes: also called Bait NS5B (100%)
In the case of B1, the binding result in test [1] is on record as “binds”.

B2: Bait polypeptide of SEQ ID No 104, NS5A (100%), HCV strain H77 nt 7019-7249 (other)
chain: IEANLLWRQEMGGNITRVESENKVVILDSFDPLVAEEDEREVSVPAEILRKSRRFARALPVWARPDYNPPLVETW
notes: also called Bait NS5A (100%)
For the molecule B2, the binding result in test [2] is on record as “binds”.

B3: SID polypeptide of SEQ ID No 36, E2 (100%), HCV strain H77 nt 1751-1865 (other)
chain: PISYANGSGLDERPYCWHYPPRPCGIVPAKSVCGPVY
notes: Intersection of yeast two-hybrid prey fragments; also called SID E2 (100%)
Regarding B3, the binding result in test [3] is given as “binds”.

B4: SID polypeptide of SEQ ID No 37, NS4B (57%)/NS5A(41%), HCV strain H77 nt 6194-6303 (other)
chain: TVTQLLRRLHQWISSECTTPCSGSWLRDIWDWICE
notes: Intersection of yeast two-hybrid prey fragments; also called SID NS4B (57%)/NS5A(41%)
On to B4, for which the binding result in test [4] was “binds”.

B5: SID polypeptide of SEQ ID No 9, NS3 (100%), HCV strain H77 nt 4676-4801 (other)
chain: GDFDSVIDCNTCVTQTVDFSLDPTFTIETTTLPQDAVSRT
notes: Intersection of yeast two-hybrid prey fragments; also called SID NS3 (100%)
B5: the binding result in test [5] is given as “binds”.

B6: Bait polypeptide of SEQ ID No 83, NS2 (12%)/NS3 (87%), HCV strain H77 nt 3312-4150 (other)
chain: AACGDIINGLPVSARRGQEILLGPADGMVSKGWRLLAPITAYAQQTRGLLGCIITSLTGRDKNQVEGEVQIVSTATQTFLATCINGVCWTVYHGAGTRTIASPKGPVIQMYTNVDQDLVGWPAPQGSRSLTPCTCGSSDLYLVTRHADVIPVRRRGDSRGSLLSPRPISYLKGSSGGPLLCPAGHAVGLFRAAVCTRGVAKAVDFIPVENLGTTMRSPVFTDNSSPPAVPQSFQVAHLHAPTGSGKSTKVPAAYAAQGYKVLVLNPSVAATLGFGAYM
notes: also called Bait NS2 (12%)/NS3 (87%)
B6: the binding result in test [6] is on record as “binds”.

B7: Bait polypeptide of SEQ ID No 108, NS5B (100%), HCV strain H77 nt 7856-8458 (other)
chain: not shown
notes: also called Bait NS5B (100%)
For B7, in [7], the binding result is on record as “binds”.

B8: SID polypeptide of SEQ ID No 34, NS5B (100%), HCV strain H77 nt 7775-8011 (other)
chain: not shown
notes: Intersection of yeast two-hybrid prey fragments; also called SID NS5B (100%)
Take B8: the binding result in [8] is listed as “binds”.

B9: SID polypeptide of SEQ ID No 5, NS3 (100%), HCV strain H77 nt 4787-5242 (other)
chain: SRTQRRGRTGRGKPGIYRFVAPGERPSGMFDSSVLCECYDAGCAWYELTPAETTVRLRAYMNTPGLPVCQDHLEFWEGVFTGLTHIDAHFLSQTKQSGENFPYLVAYQATVCARAQAPPPSWDQMWKCLIRLKPTLHGPTPLLYRLGAVQ
notes: as for B5
Take B9: the binding result in test [9] is “binds”.

B10: Bait polypeptide of SEQ ID No 105, NS5A (100%), HCV strain H77 nt 7274-7549 (other)
chain: HGCPLPPPRSPPVPPPRKKRTVVLTESTLSTALAELATKSFGSSSTSGITGDNTTTSSEPAPSGCPPDSDVESYSSMPPLEGEPGDPDLS
notes: also called Bait NS5A (100%)
As for B10, the binding result in test [10] is listed as “binds”.

B11: SID polypeptide of SEQ ID No 4, E2 (100%), HCV strain H77 nt 1871-1987 (other)
chain: PSPVVVGTTDRSGAPTYSWGANDTDVFVLNNTRPPLG
notes: as for B3
Turning to B11, the binding result in [11] is “binds”.

B12: SID polypeptide of SEQ ID No 32, NS5B (100%), HCV strain H77 nt 7769-8011 (other)
chain: not shown
notes: as for B8
Turning to B12, in test [12], the binding result is listed as “binds”.
